Common to all, as to format: cell-based
The test system of assay [1] is hippocampal slices from Hdh^Q111 mice. The experiment in a line: TBS-induced long-term potentiation (fEPSP slope) in acute hippocampal slices, field CA1. The method, then:
(§1) Acute hippocampal slices were prepared, as described elsewhere (Kramar et al. (2004) J. Neurosci. 24: 5151-5161), from 8 week old Hdh^Q111, 24 week old Hdh^Q92 and age-matched WT mice and maintained at 32° C. in an interface chamber of local design. Synaptic responses (fEPSPs) were generated by stimulating the Schaffer-commissural afferents to the apical dendrites of field CA1b pyramidal cells using stimulating electrodes positioned in fields CA1a and CA1c. For baseline recording, fEPSPs were set to 30% of the maximum responses and low frequency stimulation (3 pulses/min) was delivered. The slope of the descending phase of the fEPSP was used as a measure of response size with all values normalized to a 15 min baseline period collected 1-2 h after slice preparation. LTP was induced with a single TBS train (ten bursts of 4 pulses at 100 Hz, inter-burst interval of 200 ms). BDNF (2 nM) was prepared and delivered to slices as described previously (Menalled (2005) NeuroRx 2: 465-470).
(§2) For all electrophysiology experiments, results are summarized in the text as a percent increase in responses from baseline. Data are presented as mean ±s.d. in the text and mean ±s.e.m. in the figures.

Assay [2] has the same test system. The experiment in a line: Within-train facilitation of theta burst responses in hippocampal slices. To be noted: BDNF-treated Hdh^Q111 slices.
Excerpt: Events that occur during the two-second period of TBS can potently influence the threshold, initial expression, magnitude, and stability of LTP (Arai and Lynch (1992) Eur. J. Neurosci. 4: 411-419; Larson et al. (1986) Brain Res. 368: 347-350). […] In marked contrast, the facilitation of the second and subsequent burst responses, each a composite of four closely spaced fEPSPs, was greatly attenuated in Hdh^Q111 slices (FIG. 2, panel a, e.g. burst 4). The facilitation effect was quantified by expressing the areas of burst responses 2-10 as fractions of the area of the first burst response.
as §1, §2

Assay [3] has the same test system. Briefly: In situ rhodamine-phalloidin labeling of F-actin (TBS-induced actin polymerization in dendritic spines). To be noted: BDNF 2 nM, Hdh^Q111 slices after TBS, n=13, mean ±s.d. The method, then:
Physiological recording and delivery of TBS or low frequency stimulation was performed as described above. Starting 20 min after TBS, rhodamine-phalloidin (6 μM/2-4 μl; from Sigma, St. Louis, Mo., or Invitrogen, Carlsbad, Calif.) was applied topically (Kramar et al. (2006) Proc. Natl. Acad. Sci., USA, 103: 5579-5784) via micropipette 3 times separated by 3 min. To test the effects of BDNF on actin polymerization, BDNF (2 nM) or artificial cerebral spinal fluid was delivered to WT and Hdh^Q111 slices via a reperfusion pump system (Cole-Palmer, Vernon Hills, Ill.) at 1 ml/min 1-2 h before recording. […]
Sections were examined with epifluorescence illumination using an Olympus AX70 photomicroscope. Quantitative analyses were carried out on three serial sections situated 20 to 80 μm below the surface of original slice. […] These images were then converted to grayscale and intensity levels were cropped at values determined for each experiment to visualize low-intensity labeling.
Labeled spine-like structures were measured and counted from a 550 μm^2 sampling zone in the proximal stratum radiatum between the two stimulating electrodes using in-house software described in detail previously (Kramar et al. (2006) Proc. Natl. Acad. Sci., USA, 103: 5579-5784; Lin et al. (2005) J. Neurosci. 25: 2062-2069). […]

From patent publication US20080176793A1, “UPREGULATING ACTIVITY OR EXPRESSION OF BDNF TO MITIGATE COGNITIVE IMPAIRMENT IN ASYMPTOMATIC HUNTINGTON'S SUBJECTS” (THE REGENTS OF THE UNIVERSITY OF CALIFORNIA, priority 2006, published 2008) come the findings set out here.

B1: BDNF: the neurotrophin, Brain-Derived Neurotrophic Factor, delivered at 2 nM to hippocampal slices (protein, UniProt P23560 19-247, looked up)
Neurotrophic factor BDNF …: APMKEANIRGQGGLAYPGVRTHGTLESVNGPKAGSRGLTSLADTFEHVIEELLDEDQKVRPNEENNKDADLYTSRVMLSSQVPLEPPLLFLLEEYKNYLDAANMSMRVRRHSDPARRGELSVCDSISEWVTAADKKTAVDMSGGTVTVLEKVPVSKGQLKQYFYETKCNPMGYTKEGCRGIDKRHWNSQCRTTQSYVRALTMDSKKRIGWRFIRIDTSCVCTLTIKRGR
In the case of B1, the “effect on baseline transmission” value in assay [1] (BDNF 2 nM infused for 60 min, Hdh^Q111 or WT slices) is listed as “did not detectably change baseline transmission”. In addition, the “LTP compared with WT slices” value in assay [1] (BDNF 2 nM, Hdh^Q111 slices (FIG. 7, panel a)) is on record as “not detectably different from WTs”. For the same molecule, in assay [1] (BDNF 2 nM, Hdh^Q111 slices, mean ±s.d.), the “percent potentiation 45 min after TBS” value stood at 43.6±23.5%. Besides, the “LTP at 20 min post-TBS (percent increase in responses from baseline)” value in assay [1] (BDNF 2 nM, Hdh^Q111 slices, n=11, mean ±s.d.) is given as 59.9±28.3%. In addition, the “potentiation at end of 60 min post-TBS recording” value in assay [1] (BDNF 2 nM, subgroup of Hdh^Q111 slices, n=4) was “stable potentiation was present at the end of recording”. In addition, the “effect on responses to stimulation bursts in the theta train” value in assay [2] is “did not facilitate responses to any stimulation burst”. For the same molecule, the “burst 9 greater than burst 1” value in assay [2] (mean ±s.d.) is −5.8±9.3%. Besides, the “Facilitation of the second burst response” value in assay [2] (relative to burst 1, mean ±s.d.) is recorded as 46.1±10.2%. Moreover, in assay [3], the “number of phalloidin-labeled spines in the high-intensity bins” value is recorded as 40.5±39.3 per 550 μm^2.
